Test results taken from the supplement of paper PMC10567573.

B1: TRIB1 (parent)
chain: SYVRSRKRLREEEAARLFKQIVSA
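Further: lentivirally expressed fusions sorted by FACS into six bins by GFP to DsRed ratio, PSI derived from sequencing read proportions per bin multiplied by bin number.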

Variants of: B1
Test: protein stability index of a GFP-peptide fusion (GPS, HEK-293T) (PSI 1-6); higher = more stable
Conditions: c terminus: a fixed tail appended
SYVRSRKRLREEEAARLGKQIVSA [F18G] showed a protein stability index of 3.92.
With SYVRSRKRLREEEAARLYKQIVSA [F18Y] the protein stability index was 2.08.
In the case of SYVRSRKRLREEEAARLNKQIVSA [F18N], the protein stability index is reported as 3.1.
Work on SYVRSRKRLREEEAARLTKQIVSA [F18T] yielded a protein stability index of 3.84.
Work on SYVRSRKRLREEEAARLRKQIVSA [F18R] yielded a protein stability index of 3.74.
In the case of SYVRSRKRLREVEAARLFKQIVSA [E12V], the protein stability index is reported as 1.33.
Variant SYVRSRKRLREEEAARLFKKIVSA [Q20K] has a protein stability index of 2.15.
Work on SYVRSRKRLREEEAARLFKTIVSA [Q20T] yielded a protein stability index of 2.37.
Variant SYVRSRKRLREEEAARLFKGIVSA [Q20G] has a protein stability index of 2.52.
SYVRSRKRLREEEAARLFKEIVSA [Q20E] gave a protein stability index of 2.4.
SYVRSRKRTREEEAARLFKQIVSA [L9T] gave a protein stability index of 2.24.
Variant SYVRSRKRDREEEAARLFKQIVSA [L9D] has a protein stability index of 2.47.
Work on SYVRSRKRCREEEAARLFKQIVSA [L9C] yielded a protein stability index of 1.5.
For SYVRSRKRAREEEAARLFKQIVSA [L9A], the protein stability index was 1.91.
For SYVRSRKRWREEEAARLFKQIVSA [L9W], the protein stability index was 2.56.
For SYVRSRKRLREEEAARLFKQVVSA [I21V], the protein stability index was 2.34.
Variant SYVRSRKRLREEEAARLFKQQVSA [I21Q] has a protein stability index of 2.06.
For SYVRSRKRLREEEAARLFKQLVSA [I21L], the protein stability index was 1.39.
SYVRSRKRLREEEAARLFKQIVSR [A24R] showed a protein stability index of 2.01.
SYVRSRKRLREEEAARLFKQIVSM [A24M] gave a protein stability index of 1.14.
Variant SYVRSRKRLREEEAARLFKQIVSN [A24N] has a protein stability index of 3.37.
Work on SYVRSRKRLREEEAARLFKQIVSW [A24W] yielded a protein stability index of 2.
Variant SYVRSRKRLREEEAARLFKQIVSV [A24V] has a protein stability index of 2.61.
With SYVWSRKRLREEEAARLFKQIVSA [R4W] the protein stability index was 1.29.
Variant SYVYSRKRLREEEAARLFKQIVSA [R4Y] has a protein stability index of 2.11.
SYVASRKRLREEEAARLFKQIVSA [R4A] gave a protein stability index of 1.41.
In the case of SYVLSRKRLREEEAARLFKQIVSA [R4L], the protein stability index is reported as 2.35.
SYVQSRKRLREEEAARLFKQIVSA [R4Q] gave a protein stability index of 2.09.
Work on SYVRSRKRLREEEAARLFKQIASA [V22A] yielded a protein stability index of 2.58.
SYVRSRKRLREEEAARLFKQIHSA [V22H] showed a protein stability index of 2.23.
Variant SYVRSRKRLREEEAARLFKQIYSA [V22Y] has a protein stability index of 1.49.
For SYVRSRKRLREEEAARLFKQIFSA [V22F], the protein stability index was 1.83.
With SYVRSRKRLREEEAARLFKQIISA [V22I] the protein stability index was 2.94.
Variant SYVRSRKRLREEEAARLFKQITSA [V22T] has a protein stability index of 2.94.
SYVRSRKRLREEEAARLFKQIPSA [V22P] gave a protein stability index of 3.72.
SYVRSRKRLREEEAHRLFKQIVSA [A15H] showed a protein stability index of 2.08.
With SYVRSRKRLREEEANRLFKQIVSA [A15N] the protein stability index was 2.48.
In the case of SYVRSRKRLREEEAWRLFKQIVSA [A15W], the protein stability index is reported as 1.74.
SYVRSRKRLREEEACRLFKQIVSA [A15C] gave a protein stability index of 1.93.
Work on SYVRSRKRLREEEAARLFEQIVSA [K19E] yielded a protein stability index of 2.06.
SYVRSRKRLREEEAARLFPQIVSA [K19P] gave a protein stability index of 2.81.
Work on SYVRSRKRLREEEAARLFTQIVSA [K19T] yielded a protein stability index of 2.04.
SYVRSRKRLREEEAARLFRQIVSA [K19R] gave a protein stability index of 1.85.
SYVRSRKRLREEEAARLFMQIVSA [K19M] gave a protein stability index of 2.43.
For FYVRSRKRLREEEAARLFKQIVSA [S1F], the protein stability index was 1.45.
With QYVRSRKRLREEEAARLFKQIVSA [S1Q] the protein stability index was 1.58.
Variant PYVRSRKRLREEEAARLFKQIVSA [S1P] has a protein stability index of 2.1.
Work on AYVRSRKRLREEEAARLFKQIVSA [S1A] yielded a protein stability index of 2.07.
For YYVRSRKRLREEEAARLFKQIVSA [S1Y], the protein stability index was 1.41.
Work on DYVRSRKRLREEEAARLFKQIVSA [S1D] yielded a protein stability index of 1.88.
In the case of SYVRLRKRLREEEAARLFKQIVSA [S5L], the protein stability index is reported as 2.5.
For SYVRERKRLREEEAARLFKQIVSA [S5E], the protein stability index was 1.39.
With SYVRSRKRLREEVAARLFKQIVSA [E13V] the protein stability index was 1.65.
With SYVRSRKRLVEEEAARLFKQIVSA [R10V] the protein stability index was 1.69.
SYVRSRKRLYEEEAARLFKQIVSA [R10Y] showed a protein stability index of 1.95.
With SYVRSRKRLSEEEAARLFKQIVSA [R10S] the protein stability index was 2.34.
In the case of SYVRSRKRLGEEEAARLFKQIVSA [R10G], the protein stability index is reported as 3.19.
Work on SYVRSRKRLEEEEAARLFKQIVSA [R10E] yielded a protein stability index of 2.27.
SYVRSRKMLREEEAARLFKQIVSA [R8M] gave a protein stability index of 1.58.
Variant SYVRSRKLLREEEAARLFKQIVSA [R8L] has a protein stability index of 2.03.
Variant SYVRSRKWLREEEAARLFKQIVSA [R8W] has a protein stability index of 1.95.
Variant SYVRSRKVLREEEAARLFKQIVSA [R8V] has a protein stability index of 2.37.
SYVRSRKHLREEEAARLFKQIVSA [R8H] gave a protein stability index of 1.96.
Work on SYVRSRKALREEEAARLFKQIVSA [R8A] yielded a protein stability index of 2.3.
SMVRSRKRLREEEAARLFKQIVSA [Y2M] showed a protein stability index of 2.91.
SSVRSRKRLREEEAARLFKQIVSA [Y2S] showed a protein stability index of 1.9.
SRVRSRKRLREEEAARLFKQIVSA [Y2R] gave a protein stability index of 2.17.
Variant SKVRSRKRLREEEAARLFKQIVSA [Y2K] has a protein stability index of 2.14.
Variant SHVRSRKRLREEEAARLFKQIVSA [Y2H] has a protein stability index of 2.58.
Work on SAVRSRKRLREEEAARLFKQIVSA [Y2A] yielded a protein stability index of 2.5.
SQVRSRKRLREEEAARLFKQIVSA [Y2Q] showed a protein stability index of 2.48.
SYVRSRKRLREEEAARLFKQIVMA [S23M] showed a protein stability index of 2.87.
Variant SYVRSRKRLREEEAARLFKQIVRA [S23R] has a protein stability index of 1.99.
With SYVRSRKRLREEEAARLFKQIVTA [S23T] the protein stability index was 1.75.
For SYVRSRKRLREEEAARLFKQIVCA [S23C], the protein stability index was 1.63.
SYVRSRKRLREEEAARMFKQIVSA [L17M] gave a protein stability index of 2.03.
With SYVRSRKRLREEEAACLFKQIVSA [R16C] the protein stability index was 2.01.
For SYVRSRKRLREEEAAFLFKQIVSA [R16F], the protein stability index was 2.66.
With SYVRSRIRLREEEAARLFKQIVSA [K7I] the protein stability index was 1.86.
For SYVRSRHRLREEEAARLFKQIVSA [K7H], the protein stability index was 1.58.
With SYVRSRDRLREEEAARLFKQIVSA [K7D] the protein stability index was 3.05.
Work on SYVRSRRRLREEEAARLFKQIVSA [K7R] yielded a protein stability index of 2.11.
SYVRSRWRLREEEAARLFKQIVSA [K7W] showed a protein stability index of 1.62.
For SYVRSRGRLREEEAARLFKQIVSA [K7G], the protein stability index was 2.99.
In the case of SYVRSRMRLREEEAARLFKQIVSA [K7M], the protein stability index is reported as 2.38.
In the case of SYVRSRPRLREEEAARLFKQIVSA [K7P], the protein stability index is reported as 2.03.
In the case of SYCRSRKRLREEEAARLFKQIVSA [V3C], the protein stability index is reported as 1.71.
In the case of SYGRSRKRLREEEAARLFKQIVSA [V3G], the protein stability index is reported as 1.3.
Work on SYERSRKRLREEEAARLFKQIVSA [V3E] yielded a protein stability index of 1.83.
SYKRSRKRLREEEAARLFKQIVSA [V3K] showed a protein stability index of 1.99.
Variant SYVRSPKRLREEEAARLFKQIVSA [R6P] has a protein stability index of 2.66.
Work on SYVRSYKRLREEEAARLFKQIVSA [R6Y] yielded a protein stability index of 2.23.
With SYVRSSKRLREEEAARLFKQIVSA [R6S] the protein stability index was 2.21.
Variant SYVRSRKRLREEEGARLFKQIVSA [A14G] has a protein stability index of 3.38.
